The target in assay [1] is T1, hexokinase-II (HK-II), endogenous in PC3 cells (human, UniProt P52789 1-917).
T1 sequence (looked up): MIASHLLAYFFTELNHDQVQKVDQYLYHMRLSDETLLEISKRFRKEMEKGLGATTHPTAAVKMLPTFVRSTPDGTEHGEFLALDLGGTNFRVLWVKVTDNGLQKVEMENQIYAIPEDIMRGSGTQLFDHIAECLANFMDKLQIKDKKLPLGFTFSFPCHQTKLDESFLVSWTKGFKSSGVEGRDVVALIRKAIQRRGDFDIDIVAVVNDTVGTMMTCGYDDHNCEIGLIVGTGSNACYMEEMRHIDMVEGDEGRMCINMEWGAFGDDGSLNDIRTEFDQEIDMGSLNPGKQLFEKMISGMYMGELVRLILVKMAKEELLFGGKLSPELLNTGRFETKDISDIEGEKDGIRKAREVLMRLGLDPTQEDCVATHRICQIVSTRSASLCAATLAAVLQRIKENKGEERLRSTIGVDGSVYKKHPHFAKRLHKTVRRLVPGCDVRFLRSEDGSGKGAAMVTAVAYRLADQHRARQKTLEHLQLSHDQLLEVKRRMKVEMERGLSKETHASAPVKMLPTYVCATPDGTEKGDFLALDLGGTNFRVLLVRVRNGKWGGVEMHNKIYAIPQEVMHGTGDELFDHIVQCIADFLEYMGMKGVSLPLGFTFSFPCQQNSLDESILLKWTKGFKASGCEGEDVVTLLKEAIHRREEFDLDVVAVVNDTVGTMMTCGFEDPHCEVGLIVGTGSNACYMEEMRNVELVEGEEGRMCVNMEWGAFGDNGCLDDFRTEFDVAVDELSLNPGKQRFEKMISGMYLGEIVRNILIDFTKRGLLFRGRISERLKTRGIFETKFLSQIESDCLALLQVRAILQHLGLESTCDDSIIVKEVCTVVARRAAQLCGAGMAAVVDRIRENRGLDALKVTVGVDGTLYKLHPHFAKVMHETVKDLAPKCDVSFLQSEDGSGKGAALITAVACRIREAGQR
The assay is described as follows: co-immunoprecipitation with anti-Flag from transfected PC3 cells, Western blot and densitometry (AU).

Assay [2] addresses T2, VDAC1 (endogenous, in PC3 cell extracts) (human, UniProt P21796 2-283).
T2 construct: also called voltage-dependent anion channel-1
The assay is described as follows: co-immunoprecipitation with anti-Flag from PC3 cells, Western blot.

The target in assay [3] is T3, hexokinase-I (HK-I), endogenous in PC3 cells (human, UniProt P19367 1-917).
T3 sequence (looked up): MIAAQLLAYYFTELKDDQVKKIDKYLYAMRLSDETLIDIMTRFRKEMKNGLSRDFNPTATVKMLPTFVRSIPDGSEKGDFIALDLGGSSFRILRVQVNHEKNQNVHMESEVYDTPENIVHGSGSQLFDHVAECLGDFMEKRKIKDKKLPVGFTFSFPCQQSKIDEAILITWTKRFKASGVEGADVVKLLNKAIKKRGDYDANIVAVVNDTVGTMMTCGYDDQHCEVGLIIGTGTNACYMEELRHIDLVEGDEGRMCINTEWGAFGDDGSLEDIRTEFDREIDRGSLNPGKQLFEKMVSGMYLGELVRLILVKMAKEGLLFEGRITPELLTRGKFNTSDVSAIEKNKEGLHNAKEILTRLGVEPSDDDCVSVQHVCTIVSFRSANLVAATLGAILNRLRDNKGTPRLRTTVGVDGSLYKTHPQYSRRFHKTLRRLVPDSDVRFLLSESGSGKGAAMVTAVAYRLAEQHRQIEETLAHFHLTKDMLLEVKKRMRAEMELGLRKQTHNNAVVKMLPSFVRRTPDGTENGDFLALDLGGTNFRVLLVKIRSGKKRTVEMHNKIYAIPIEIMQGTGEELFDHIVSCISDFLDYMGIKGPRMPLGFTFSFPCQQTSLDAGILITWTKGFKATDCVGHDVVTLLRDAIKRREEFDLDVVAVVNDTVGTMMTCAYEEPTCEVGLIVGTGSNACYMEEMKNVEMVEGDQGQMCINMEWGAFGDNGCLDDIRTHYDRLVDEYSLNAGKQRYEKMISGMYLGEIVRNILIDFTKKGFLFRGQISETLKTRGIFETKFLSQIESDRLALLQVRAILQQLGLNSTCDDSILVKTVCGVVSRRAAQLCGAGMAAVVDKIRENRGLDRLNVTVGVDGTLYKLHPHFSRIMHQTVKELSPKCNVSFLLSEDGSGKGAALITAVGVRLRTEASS
The assay is described as above.

In assay [4] the target is T4, recombinant full length human VDAC1 (hVDAC1) (human, UniProt P21796 1-283).
T4 construct: domain: full length; also called human recombinant VDAC; recombinant VDAC1
T4 sequence (P21796 whole entry): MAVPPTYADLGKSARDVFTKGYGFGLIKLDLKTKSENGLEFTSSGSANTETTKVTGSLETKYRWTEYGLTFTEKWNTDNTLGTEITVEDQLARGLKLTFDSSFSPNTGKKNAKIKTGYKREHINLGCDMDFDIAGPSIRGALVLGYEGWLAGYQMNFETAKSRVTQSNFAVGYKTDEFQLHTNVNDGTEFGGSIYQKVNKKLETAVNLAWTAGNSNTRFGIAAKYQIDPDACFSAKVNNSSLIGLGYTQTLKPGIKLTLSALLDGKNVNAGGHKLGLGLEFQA
The assay is described as follows: isothermal titration calorimetry, 100 µM peptide injected into 10 µM hVDAC1, 20 °C.
Procedure: (§1) Isothermal titration calorimetry (ITC). ITC experiments were performed using MlcroCal iTC200 (Malvern). Purified full-length hVDAC1 was buffer-exchanged into 25 mM HEPES-KOH (pH 7.5), 0.1 M KCl, 5% glycerol, 2% n-Octylglucoside, and 1 mM TCEP (ITC buffer). […] The ITC binding experiments were carried out at 20° C. Peptides at a concentration of 100 μM were added by 2.47 μl injections to 10 μM hVDAC1. The data collected was processed in MicroCal Origin software (Malvern).

Assay [5] concerns the target T4, recombinant full length human VDAC1 …. The assay is described as follows: isothermal titration calorimetry, peptide injected into human recombinant VDAC.
Procedure: as §1
Assay [6] concerns the target Dynamin-Related Protein-1 (Drp1), endogenous in PC3 cells (human, UniProt O00429 1-736, limits assumed). The assay is described as follows: co-immunoprecipitation with anti-Flag from PC3 cells, Western blot.
The target of assay [7] is T2, VDAC1 (endogenous, in PC3 cell extracts). The assay is described as follows: affinity chromatography of PC3 cell extracts on beads-coupled MFF peptide #8, Western blot of bound proteins.
Assay [8] deals with T1, hexokinase-II (HK-II), endogenous in …. The assay is described as above.
Assay [9] has as its target T3, hexokinase-I (HK-I), endogenous in PC3 …. The assay is described as above.
The target in assay [10] is T4, recombinant full length human VDAC1 …. The assay is described as follows: isothermal titration calorimetry, scrambled peptide injected into human recombinant VDAC.
Procedure: as §1

Residue numbers refer to the chain shown, from its start. In names and notes the source's numbering stands.

T2 sequence (P21796 2-283 limits assumed): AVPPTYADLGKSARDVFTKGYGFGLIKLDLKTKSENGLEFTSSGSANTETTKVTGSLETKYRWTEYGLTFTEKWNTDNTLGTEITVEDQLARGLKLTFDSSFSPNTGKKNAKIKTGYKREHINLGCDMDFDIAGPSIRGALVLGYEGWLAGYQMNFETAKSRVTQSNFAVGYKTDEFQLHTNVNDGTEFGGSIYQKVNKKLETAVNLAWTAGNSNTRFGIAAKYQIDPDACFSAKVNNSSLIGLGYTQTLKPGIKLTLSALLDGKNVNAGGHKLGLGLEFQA
Chain of Dynamin-Related Protein-1 (Drp1), endogenous in PC3 cells (O00429 whole entry): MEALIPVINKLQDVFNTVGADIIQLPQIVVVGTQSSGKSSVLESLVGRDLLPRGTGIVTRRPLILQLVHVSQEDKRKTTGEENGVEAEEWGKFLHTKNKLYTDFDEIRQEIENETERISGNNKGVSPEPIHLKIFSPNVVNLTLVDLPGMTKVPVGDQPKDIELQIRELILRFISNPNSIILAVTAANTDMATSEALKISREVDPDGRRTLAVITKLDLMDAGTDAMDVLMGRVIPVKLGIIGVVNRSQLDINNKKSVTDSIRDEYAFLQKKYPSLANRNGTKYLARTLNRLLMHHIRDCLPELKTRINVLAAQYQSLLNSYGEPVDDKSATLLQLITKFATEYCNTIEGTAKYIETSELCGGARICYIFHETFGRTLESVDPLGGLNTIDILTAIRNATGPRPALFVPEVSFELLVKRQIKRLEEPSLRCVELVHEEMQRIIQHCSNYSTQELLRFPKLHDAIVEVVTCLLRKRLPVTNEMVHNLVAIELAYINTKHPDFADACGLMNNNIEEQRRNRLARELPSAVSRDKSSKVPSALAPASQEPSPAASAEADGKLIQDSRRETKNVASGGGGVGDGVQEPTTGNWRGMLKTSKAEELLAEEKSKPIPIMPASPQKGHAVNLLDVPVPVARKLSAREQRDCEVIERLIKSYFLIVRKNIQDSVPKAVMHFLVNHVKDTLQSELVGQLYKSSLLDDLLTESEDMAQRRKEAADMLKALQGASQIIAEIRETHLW

B1: Flag-MFF1 Q241A (other, not shown: small tags and cut ends)
chain: MSKGTSSDTSLGRVSRAAFPSPTAAEMAEISRIQYEMEYTEGISQRMRVPEKLKVAPPNADLEQGFQEGVPNASVIMQVPERIVVAGNNEDVSFSRPADLDLIQSTPFKPLALKTPPRVLTLSERPLDFLDLERPPTTPQNEEIRAVGRLKRERSMSENAVRQNGQLVRNDSLWHRSDSAPRNKISRFQAPISAPEYTVTPSPQQARVCPPHMLPEDGANLSSARGILSLIQSSTRRAYQAILDVLDENRRPVLRGGSAAATSNPHHDNVRYGISNIDTTIEGTSDDLTVVDAASLRRQIIKLNRRLQLLEEENKERAKREMVMYSITVAFWLLNSWLWFRR
notes: also called mutant Flag-MFF Q241A
Turning to B1, the binding result in assay [1] was “binds”.

B2: Flag-MFF1 R236D (other, not shown: small tags and cut ends)
chain: B1 chain with R236D, A241Q
notes: also called mutant Flag-MFF R236D
In the case of B2, the binding result in [1] was “binds”.

B3: Flag-MFF1 R225D (other, not shown: small tags and cut ends)
chain: B1 chain with R225D, A241Q
notes: also called mutant Flag-MFF R225D
Take B3: the binding result in assay [1] is recorded as “binds”.

B4: Flag-MFF5 (other, human, UniProt Q9GZY8-5 1-238, looked up)
chain: MAEISRIQYEMEYTEGISQRMRVPEKLKVAPPNADLEQGFQEGVPNASVIMQVPERIVVAGNNEDVSFSRPADLDLIQSTPFKPLALKTPPRVLTLSERPLDFLDLERPPTTPQNEEIRAVGRLKRERSMSENAVRQNGQLVRNDSLPVLRGGSAAATSNPHHDNVRYGISNIDTTIEGTSDDLTVVDAASLRRQIIKLNRRLQLLEEENKERAKREMVMYSITVAFWLLNSWLWFRR
notes: also called Flag-MIFFS (misprint in legend); not shown: Flag tag
Take B4: the binding result in assay [2] and in assay [3] was “no binding” each time.

B5: MFF peptide #8-11 (Ser223-Leu243 of MFF1), wild type (peptide)
peptide: SARGILSLIQSSTRRAYQQIL
notes: Plain synthetic peptide (not the cell-permeable form) as used in ITC; also called WT MFF peptide #8-11; MFF (L) peptide #8-11
For B5, the Kd was around 12 µM in [4] and 12 µM in assay [5].

B6: Flag-MFF2 (other, human, UniProt Q9GZY8-2 1-291, looked up)
chain: MAEISRIQYEMEYTEGISQRMRVPEKLKVAPPNADLEQGFQEGVPNASVIMQVPERIVVAGNNEDVSFSRPADLDLIQSTPFKPLALKTPPRVLTLSERPLDFLDLERPPTTPQNEEIRAVGRLKRERSMSENAVRQNGQLVRNDSLVTPSPQQARVCPPHMLPEDGANLSSARGILSLIQSSTRRAYQQILDVLDENRRPVLRGGSAAATSNPHHDNVRYGISNIDTTIEGTSDDLTVVDAASLRRQIIKLNRRLQLLEEENKERAKREMVMYSITVAFWLLNSWLWFRR
notes: not shown: Flag tag
B6: the binding result in assay [6] is “no binding”.

On to DGANLSSARGILSLIQSSTRRAYQQILDVL (also called MFF #8) [MFF peptide #8 (Asp217-Leu246 of MFF1)], for which the binding result in assay [7], in [8] and in [9] was “binds” throughout.

B7: scrambled variant of MFF peptide 8#11 (peptide)
peptide: SSQLRYLARSQRITIQLIAGS
notes: Control peptide in ITC; also called MFF scrambled peptide
On to B7, for which, in [10], the binding result is reported as “no binding (tested: molar ratio about 2)”.
